In the experiment the target is neutral avidin (UniProt P02701). The experiment can be described thus: dynamic light scattering; each protein alone peaks near 10 nm.

The record followed here is US20220259268A1.

Chain of neutral avidin (P02701 25-152): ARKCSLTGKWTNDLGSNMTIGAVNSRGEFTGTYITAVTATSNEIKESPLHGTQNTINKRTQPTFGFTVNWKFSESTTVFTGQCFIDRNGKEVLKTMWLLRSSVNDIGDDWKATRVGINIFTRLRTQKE

Consider “Nhead recombinant protein (AtaA59-325-GCN4pII-His)”, for which the particle size at the peak of the mixture (DLS) is greater than 1000 nm.
